In US20240352132A1 (JIANGSU HENGRUI PHARMACEUTICALS, published 2024):
Values belong to the binder of their own block, whether it stands above or below them.

How the values were obtained:
[1] = target: T1, HGFR protein extracellular domain with the His tag (human, UniProt P08581 25-932); assay: SPR Biacore T200, antibody captured on Protein A, antigen in flow, 1:1 fit
T1 construct: also called HGFR-His; human HGFR
Procedure: (§1) The affinity of the test molecule for human EGFR (SEQ ID NO: 42) or human HGFR protein (SEQ ID NO: 43) was determined by Biacore T200 (GE) as follows:
(§2) The antibody molecules were affinity-captured on a Protein A biosensor chip of which antigens flowed through the surface for 180 s, and then the antibody molecules were dissociated for 600 s. The reaction signals were detected in real time using a Biacore T200 instrument to obtain association and dissociation curves. After dissociation was completed for each cycle, the biosensor chip was washed with 10 mM Gly-HCl (pH 1.5) for regeneration. Data were fitted using a 1:1 model, and affinity values of the test molecules were obtained. In this example, the positive control MCLA was a bispecific antibody specifically binding to HGFR and EGFR (see PB8532 in WO2019031965 for specific sequences).

[2] = target: T1, HGFR protein extracellular domain with …; assay: flow cytometry on HGFR CHO-S stably transfected cells, R-PE goat anti-human (H+L) detection
Excerpt: (§3) The binding activity of antigen-binding molecules specifically binding to HGFR and EGFR to cells was detected using a flow cytometer. EGFR CHO-S stably transfected cell strain, HGFR CHO-S stably transfected cell strain, and H1975-HGF or MKN-45 tumor cell strain at 1×10⁶ cells/mL were blocked with 1% BSA PBS buffer, followed by the addition of diluted antibody samples at different concentrations (C25 was a negative control, which was an IgGI antibody protein of irrelevant targets, the same applied hereinafter), and the mixtures were incubated for 1 h. After the mixtures were washed twice, R-PE-goat anti-human (H+L) antibody (Invitrogen, CAT #H10104) was added, and the mixtures were incubated for 0.5 h. After the plate was washed twice, fluorescence signals were read using a flow cytometer.

[3] = target: T1, HGFR protein extracellular domain with …; assay: SPR Biacore T200
Procedure: as §1, §2

[4] = target: T2, human EGFR protein extracellular domain with the His tag (human, UniProt P00533 25-645); assay: competition ELISA, blocks EGF-mFc on captured EGFR-His
T2 construct: also called EGFR-His
Procedure: 1 μg/mL rabbit anti-His antibody (GenScript, A01857) was coated overnight at 4° C. and then blocked. After the plate was washed, 2 μg/mL EGFR-His (SEQ ID NO: 42) was added, and the plate was incubated for 1 h. […] After the plate was washed, a tetramethylbenzidine solution was added for color development. Finally, a stop solution was added. OD450 values were measured on a microplate reader.

[5] = target: T2, human EGFR protein extracellular domain …; assay: SPR Biacore T200, antibody captured on Protein A, antigen in flow, 1:1 fit
Procedure: as §1, §2

[6] = target: T1, HGFR protein extracellular domain with …; assay: competition ELISA, blocks bio-HGF-His on coated HGFR-His
Procedure: The ability of the antibodies to block HGF/HGFR was tested by ELISA. 5 μg/mL HGFR-His (for the sequence, see SEQ ID NO: 43) was coated overnight at 4° C. and then blocked. […] After the plate was washed, horseradish peroxidase-streptavidin (Jackson, 016-030-084) was added, and the plate was incubated for 1 h. After the plate was washed, a tetramethylbenzidine solution was added for color development. Finally, a stop solution was added. OD450 values were measured on a microplate reader.

[7] = target: T2, human EGFR protein extracellular domain …; assay: flow cytometry on EGFR CHO-S stably transfected cells, R-PE goat anti-human (H+L) detection
Excerpt: as §3

B2: Ab10.1 (antibody, V domains shown)
VH: QVQLVESGGGVVQPGRSLRLSCAASGFSLSDYGVHWVRQAPGKGLEWLAVIWSGGSTNYADAFVSRLTISKDNSKNTVYLQMNSLRAEDTAVYYCARNHDNPYIYAMDYWGQGTTVTVSS
VL: DIVLTQSPDSLAVSLGERATINCRADKSVSTSTYNYLHWYQQKPGQPPKLLIYRGSFLATGVPDRFSGSGSGTDFTLTISSLQAEDVAVYYCQHSRDLPPTFGQGTKLEIK
notes: CDR mutant of Ab10
- EC50 (read off the curve) [2]: ~0.5 nM
- fold affinity against Ab10 [3]: ≥ 4 fold
- Kd [1]: 7.56 nM
- koff [1]: 0.000309 s⁻¹
- kon [1]: 40800 M⁻¹ s⁻¹

B3: EM1 (bispecific antibody, human IgG1, kappa)
heavy 1: not shown
light 1: DIQLTQSPSSLSASVGDRVTITCRASQDISSALVWYQQKPGKAPKLLIYDASSLESGVPSRFSGSESGTDFTLTISSLQPEDFATYYCQQFNSYPLTFGGGTKVEIKGGGGSGGGGDIVLTQSPDSLAVSLGERATINCRADKSVSTSTYNYLHWYQQKPGQPPKLLIYRGSFLATGVPDRFSGSGSGTDFTLTISSLQAEDVAVYYCQHSRDLPPTFGQGTKLEIKRTVAAPSVFIFPPSDEQLKSGTASVVCLLNNFYPREAKVQWKVDNALQSGNSQESVTEQDSKDSTYSLSSTLTLSKADYEKHKVYACEVTHQGLSSPVTKSFNRGEC
heavy 2: EVQLVESGGGLVQPGGSLRLSCAASGYTFTSYWLHWVRQAPGKGLEWVGMIDPSNSDTRFNPNFKDRFTISADTSKNTAYLQMNSLRAEDTAVYYCATYRSYVTPLDYWGQGTLVTVSSGGGGSGIPPKIECLPIDISIDEGKVLTVASAFTGEPTPEVTWSTGGRKIHSQEQGRFHIENTDDSTTLTIKDVQKQDGGLYTLTLRNEFGSDSATVNIHIRSIDKTHTCPPCPAPELLGGPSVFLFPPKPKDTLMISRTPEVTCVVVDVSHEDPEVKFNWYVDGVEVHNAKTKPREEQYNSTYRVVSVLTVLHQDWLNGKEYKCKVSNKALPAPIEKTISKAKGQPREPQVCTLPPSREEMTKNQVSLSCAVKGFYPSDIAVEWESNGQPENNYKTTPPVLDSDGSFFLVSKLTVDKSRWQQGNVFSCSVMHEALHNHYTQKSLSLSPGK
light 2: DIQMTQSPSSLSASVGDRVTITCKSSQSLLYTSSQKNYLAWYQQKPGKAPKLLIYWASTRESGVPSRFSGSGSGTDFTLTISSLQPEDFATYYCQQYYAYPWTFGQGTKVEIKGGGGSSGAPRFLTRPKASVVSVGKDATLSCQIVGNPFPQVSWEKDKQPVTAGVRFRLAQDGDLYRLKILDLQLSDSGQYVCRARNAHGEAFACLGLQVDAEA
notes: Format 1: Zal.1 Fv on Ab10.1 Fab (knob) plus Omab Titin/Obscurin-substituted Fab (hole); four chains
- IC50 [4]: 2.37 µg/mL
- Kd [1]: 2.26 nM
- koff [1]: 0.000124 s⁻¹
- kon [1]: 54800 M⁻¹ s⁻¹
- Kd [5]: 7.29 nM
- koff [5]: 0.00103 s⁻¹
- kon [5]: 142000 M⁻¹ s⁻¹
- IC50 [6]: 0.25 µg/mL
- EC50 (read off the curve) [7]: ~2 nM

Now from value to binder:

- Kd [1]: 3.04 nM
B1: EM2 (bispecific antibody, human IgG1, kappa)
heavy 1: not shown
light 1: DIQMTQSPSSLSASVGDRVTITCKSSQSLLYTSSQKNYLAWYQQKPGKAPKLLIYWASTRESGVPSRFSGSGSGTDFTLTISSLQPEDFATYYCQQYYAYPWTFGQGTKVEIKRTVAAPSVFIFPPSDEQLKSGTASVVCLLNNFYPREAKVQWKVDNALQSGNSQESVTEQDSKDSTYSLSSTLTLSKADYEKHKVYACEVTHQGLSSPVTKSFNRGEC
heavy 2: QVQLVESGGGVVQPGRSLRLSCAASGFTFSTYGMHWVRQAPGKGLEWVAVIWDDGSYKYYGDSVKGRFTISRDNSKNTLYLQMNSLRAEDTAVYYCARDGITMVRGVMKDYFDYWGQGTLVTVSSGGGGSGIPPKIECLPIDISIDEGKVLTVASAFTGEPTPEVTWSTGGRKIHSQEQGRFHIENTDDSTTLTIKDVQKQDGGLYTLTLRNEFGSDSATVNIHIRSIDKTHTCPPCPAPELLGGPSVFLFPPKPKDTLMISRTPEVTCVVVDVSHEDPEVKFNWYVDGVEVHNAKTKPREEQYNSTYRVVSVLTVLHQDWLNGKEYKCKVSNKALPAPIEKTISKAKGQPREPQVCTLPPSREEMTKNQVSLSCAVKGFYPSDIAVEWESNGQPENNYKTTPPVLDSDGSFFLVSKLTVDKSRWQQGNVFSCSVMHEALHNHYTQKSLSLSPGK
light 2: DIQLTQSPSSLSASVGDRVTITCRASQDISSALVWYQQKPGKAPKLLIYDASSLESGVPSRFSGSESGTDFTLTISSLQPEDFATYYCQQFNSYPLTFGGGTKVEIKGGGGSSGAPRFLTRPKASVVSVGKDATLSCQIVGNPFPQVSWEKDKQPVTAGVRFRLAQDGDLYRLKILDLQLSDSGQYVCRARNAHGEAFACLGLQVDAEA
notes: Format 2: Omab Fab (knob) plus Zal.1 Titin/Obscurin-substituted Fab (hole); four chains

- EC50 (read off the curve) [2]: ~0.4 nM
B4: Omab (antibody, V domains shown)
VH: EVQLVESGGGLVQPGGSLRLSCAASGYTFTSYWLHWVRQAPGKGLEWVGMIDPSNSDTRFNPNFKDRFTISADTSKNTAYLQMNSLRAEDTAVYYCATYRSYVTPLDYWGQGTLVTVSS
VL: DIQMTQSPSSLSASVGDRVTITCKSSQSLLYTSSQKNYLAWYQQKPGKAPKLLIYWASTRESGVPSRFSGSGSGTDFTLTISSLQPEDFATYYCQQYYAYPWTFGQGTKVEIK
notes: anti-HGFR antibody (WO2013003680A1); also called onartuzumab
